Assay results from the supplement of paper PMC10065799, “High-throughput profiling of sequence recognition by tyrosine kinases and SH2 domains using bacterial peptide display” (eLife, 2023).

How the values were obtained:
[1] = test system: AncSZ; assay: phosphorylation enrichment, bacterial display (enrichment ratio); higher = better substrate or ligand; peptides without Tyr show the background
[2] = biological target: EPHB1 (UniProt P54762); assay: as above
[3] = biological target: EPHB2 (UniProt P29323); assay: as above
[4] = biological target: FGFR1 (UniProt P11362); assay: as above
Sequence of FGFR1 (P11362 whole entry, looked up): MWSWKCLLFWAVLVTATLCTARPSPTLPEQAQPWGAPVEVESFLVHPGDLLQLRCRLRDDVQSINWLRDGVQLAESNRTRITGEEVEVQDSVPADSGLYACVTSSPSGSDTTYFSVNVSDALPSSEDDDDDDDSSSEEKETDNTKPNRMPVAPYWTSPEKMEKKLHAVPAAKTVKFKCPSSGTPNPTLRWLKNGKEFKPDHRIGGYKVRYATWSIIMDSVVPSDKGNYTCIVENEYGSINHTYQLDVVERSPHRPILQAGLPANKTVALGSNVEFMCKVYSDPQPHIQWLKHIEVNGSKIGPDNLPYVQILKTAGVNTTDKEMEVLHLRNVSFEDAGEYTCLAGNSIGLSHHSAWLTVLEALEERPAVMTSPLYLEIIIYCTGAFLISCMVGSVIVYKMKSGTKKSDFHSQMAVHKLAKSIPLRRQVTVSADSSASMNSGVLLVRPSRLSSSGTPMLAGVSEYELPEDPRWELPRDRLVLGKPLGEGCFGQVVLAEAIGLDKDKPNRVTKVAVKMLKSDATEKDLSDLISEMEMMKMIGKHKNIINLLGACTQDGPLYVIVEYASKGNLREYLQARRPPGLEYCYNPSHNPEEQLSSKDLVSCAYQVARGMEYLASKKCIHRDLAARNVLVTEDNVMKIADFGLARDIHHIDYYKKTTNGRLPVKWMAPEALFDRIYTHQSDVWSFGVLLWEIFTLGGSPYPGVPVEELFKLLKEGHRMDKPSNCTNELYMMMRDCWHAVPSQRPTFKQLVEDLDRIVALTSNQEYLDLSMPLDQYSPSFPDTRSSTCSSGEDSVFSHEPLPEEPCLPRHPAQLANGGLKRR

[5] = biological target: FGFR3 (UniProt P22607); assay: as above
Sequence of FGFR3 (P22607 whole entry, looked up): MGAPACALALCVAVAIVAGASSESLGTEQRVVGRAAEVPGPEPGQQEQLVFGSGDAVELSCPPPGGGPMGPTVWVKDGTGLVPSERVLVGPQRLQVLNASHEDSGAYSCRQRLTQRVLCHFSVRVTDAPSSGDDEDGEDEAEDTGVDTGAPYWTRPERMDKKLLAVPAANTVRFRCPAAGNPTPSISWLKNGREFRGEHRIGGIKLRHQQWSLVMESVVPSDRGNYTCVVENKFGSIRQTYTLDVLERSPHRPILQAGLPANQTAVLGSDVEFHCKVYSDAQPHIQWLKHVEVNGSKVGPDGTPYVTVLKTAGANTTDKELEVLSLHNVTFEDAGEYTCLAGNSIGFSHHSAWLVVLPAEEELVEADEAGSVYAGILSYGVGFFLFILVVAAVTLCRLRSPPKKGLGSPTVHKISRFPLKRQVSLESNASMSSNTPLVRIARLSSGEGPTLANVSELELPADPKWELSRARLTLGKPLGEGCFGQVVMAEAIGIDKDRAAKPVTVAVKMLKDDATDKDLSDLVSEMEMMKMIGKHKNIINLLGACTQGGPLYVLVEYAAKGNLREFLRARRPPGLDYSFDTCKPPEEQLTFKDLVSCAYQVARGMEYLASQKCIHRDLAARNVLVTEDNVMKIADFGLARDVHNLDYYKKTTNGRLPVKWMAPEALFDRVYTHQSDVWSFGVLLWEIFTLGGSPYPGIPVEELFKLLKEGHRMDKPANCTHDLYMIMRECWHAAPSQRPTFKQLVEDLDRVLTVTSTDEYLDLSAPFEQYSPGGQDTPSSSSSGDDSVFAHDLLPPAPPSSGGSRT

[6] = test system: Fer (mouse); assay: as above
[7] = biological target: Fes (UniProt P07332); assay: as above
[8] = biological target: Fyn (UniProt P06241); assay: as above
Sequence of Fyn (P06241 whole entry, looked up): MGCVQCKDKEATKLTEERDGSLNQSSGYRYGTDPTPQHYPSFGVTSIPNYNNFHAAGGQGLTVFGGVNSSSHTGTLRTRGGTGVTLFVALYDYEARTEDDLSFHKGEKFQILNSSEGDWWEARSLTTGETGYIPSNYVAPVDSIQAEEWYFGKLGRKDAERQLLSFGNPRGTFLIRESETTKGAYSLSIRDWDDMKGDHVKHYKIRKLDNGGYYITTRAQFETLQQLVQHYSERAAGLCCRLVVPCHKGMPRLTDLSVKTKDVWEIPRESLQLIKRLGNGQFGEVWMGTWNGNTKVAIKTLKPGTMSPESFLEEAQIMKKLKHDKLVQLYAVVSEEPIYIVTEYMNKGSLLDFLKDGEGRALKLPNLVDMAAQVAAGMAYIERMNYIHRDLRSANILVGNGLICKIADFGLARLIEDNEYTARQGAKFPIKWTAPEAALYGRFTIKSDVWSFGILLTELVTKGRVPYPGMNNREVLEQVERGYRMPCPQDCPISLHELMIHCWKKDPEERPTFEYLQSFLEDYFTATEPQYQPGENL

[9] = biological target: Hck (UniProt P08631); assay: as above
Sequence of Hck (P08631 whole entry, looked up): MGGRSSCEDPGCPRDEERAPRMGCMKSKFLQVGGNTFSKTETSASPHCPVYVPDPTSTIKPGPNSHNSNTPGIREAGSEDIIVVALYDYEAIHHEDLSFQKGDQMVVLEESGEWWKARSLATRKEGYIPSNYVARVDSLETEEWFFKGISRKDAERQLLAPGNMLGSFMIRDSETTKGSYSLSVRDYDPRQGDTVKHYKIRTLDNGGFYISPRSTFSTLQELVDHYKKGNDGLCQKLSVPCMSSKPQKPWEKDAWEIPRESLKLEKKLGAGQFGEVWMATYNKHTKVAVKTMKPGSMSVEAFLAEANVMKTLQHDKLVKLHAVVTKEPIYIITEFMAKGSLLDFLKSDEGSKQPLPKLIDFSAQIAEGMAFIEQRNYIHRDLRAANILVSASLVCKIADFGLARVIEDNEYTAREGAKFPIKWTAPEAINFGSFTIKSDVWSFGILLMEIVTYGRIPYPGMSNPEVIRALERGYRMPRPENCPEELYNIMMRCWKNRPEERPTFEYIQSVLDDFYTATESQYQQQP

[10] = biological target: Jak2 (UniProt O60674); assay: as above
Sequence of Jak2 (O60674 whole entry, looked up): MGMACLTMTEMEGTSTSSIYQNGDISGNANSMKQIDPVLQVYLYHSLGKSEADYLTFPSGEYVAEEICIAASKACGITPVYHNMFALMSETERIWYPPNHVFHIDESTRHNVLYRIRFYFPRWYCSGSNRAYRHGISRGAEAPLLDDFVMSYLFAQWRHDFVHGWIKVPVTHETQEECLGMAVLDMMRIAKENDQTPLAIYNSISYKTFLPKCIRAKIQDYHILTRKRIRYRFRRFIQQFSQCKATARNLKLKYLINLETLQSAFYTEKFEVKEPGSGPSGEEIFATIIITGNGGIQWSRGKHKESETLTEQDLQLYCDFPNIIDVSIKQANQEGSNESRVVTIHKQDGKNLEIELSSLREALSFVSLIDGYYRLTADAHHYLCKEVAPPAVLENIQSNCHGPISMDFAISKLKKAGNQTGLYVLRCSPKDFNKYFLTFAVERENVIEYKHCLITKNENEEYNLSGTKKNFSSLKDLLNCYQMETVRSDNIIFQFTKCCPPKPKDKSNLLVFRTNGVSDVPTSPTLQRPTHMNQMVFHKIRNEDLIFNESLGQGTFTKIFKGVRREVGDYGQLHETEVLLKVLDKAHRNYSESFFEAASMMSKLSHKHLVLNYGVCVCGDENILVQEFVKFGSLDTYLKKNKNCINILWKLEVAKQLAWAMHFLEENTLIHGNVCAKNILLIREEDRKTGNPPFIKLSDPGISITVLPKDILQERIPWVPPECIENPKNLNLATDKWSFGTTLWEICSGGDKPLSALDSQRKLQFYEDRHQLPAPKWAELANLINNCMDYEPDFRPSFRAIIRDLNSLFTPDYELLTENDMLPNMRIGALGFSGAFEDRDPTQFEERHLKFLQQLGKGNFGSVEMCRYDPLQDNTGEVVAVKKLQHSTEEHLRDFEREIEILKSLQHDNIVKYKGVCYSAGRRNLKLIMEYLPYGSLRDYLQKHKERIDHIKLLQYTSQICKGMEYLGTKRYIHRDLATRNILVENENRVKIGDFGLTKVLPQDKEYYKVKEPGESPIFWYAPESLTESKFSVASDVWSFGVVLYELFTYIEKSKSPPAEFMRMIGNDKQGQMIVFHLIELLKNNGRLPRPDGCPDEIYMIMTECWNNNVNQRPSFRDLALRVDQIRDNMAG

[11] = biological target: MERTK (UniProt Q12866); assay: as above
Sequence of MERTK (Q12866 whole entry, looked up): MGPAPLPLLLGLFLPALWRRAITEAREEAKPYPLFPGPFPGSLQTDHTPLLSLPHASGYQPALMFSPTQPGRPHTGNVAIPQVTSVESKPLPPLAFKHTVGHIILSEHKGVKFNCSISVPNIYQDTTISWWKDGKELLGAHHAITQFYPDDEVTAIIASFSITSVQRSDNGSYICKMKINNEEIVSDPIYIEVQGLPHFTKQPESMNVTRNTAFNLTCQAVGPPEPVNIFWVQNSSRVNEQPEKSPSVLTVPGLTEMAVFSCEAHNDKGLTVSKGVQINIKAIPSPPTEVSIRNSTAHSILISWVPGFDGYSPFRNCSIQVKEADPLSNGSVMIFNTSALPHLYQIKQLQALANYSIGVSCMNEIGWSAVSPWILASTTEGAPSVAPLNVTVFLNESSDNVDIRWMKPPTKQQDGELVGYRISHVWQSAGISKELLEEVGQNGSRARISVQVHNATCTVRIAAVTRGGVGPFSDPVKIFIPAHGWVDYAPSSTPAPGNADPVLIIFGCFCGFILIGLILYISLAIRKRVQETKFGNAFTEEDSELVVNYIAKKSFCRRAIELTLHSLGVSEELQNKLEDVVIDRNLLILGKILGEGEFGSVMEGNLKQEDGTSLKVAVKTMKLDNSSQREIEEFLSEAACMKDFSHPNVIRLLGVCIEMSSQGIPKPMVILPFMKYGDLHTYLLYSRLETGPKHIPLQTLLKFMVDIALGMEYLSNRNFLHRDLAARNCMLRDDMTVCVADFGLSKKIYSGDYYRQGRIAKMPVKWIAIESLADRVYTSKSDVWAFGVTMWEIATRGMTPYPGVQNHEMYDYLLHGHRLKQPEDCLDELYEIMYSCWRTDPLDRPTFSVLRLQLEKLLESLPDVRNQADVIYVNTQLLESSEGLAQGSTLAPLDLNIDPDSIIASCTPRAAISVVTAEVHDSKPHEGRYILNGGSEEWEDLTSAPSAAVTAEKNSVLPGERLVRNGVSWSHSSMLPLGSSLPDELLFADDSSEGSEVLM

[12] = test system: c-Abl (mouse); assay: as above
[13] = test system: c-Src; assay: as above
[14] = biological target: Grb2 SH2 (UniProt P62993); assay: SH2 binding enrichment of the phosphorylated peptide, bacterial display (enrichment ratio); higher = better substrate or ligand; peptides without Tyr show the background
Sequence of Grb2 SH2 (P62993 whole entry, looked up): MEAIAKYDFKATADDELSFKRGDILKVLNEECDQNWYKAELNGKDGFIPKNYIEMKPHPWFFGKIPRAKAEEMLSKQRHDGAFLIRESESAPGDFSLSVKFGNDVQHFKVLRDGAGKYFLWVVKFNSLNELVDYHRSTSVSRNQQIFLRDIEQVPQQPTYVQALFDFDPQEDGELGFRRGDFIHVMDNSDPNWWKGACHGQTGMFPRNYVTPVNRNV

[15] = biological target: SHP2-C SH2; assay: as above
[16] = biological target: c-Src SH2; assay: as above
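Throughout, for SH2 binding enrichment of the phosphorylated peptide, bacterial display: peptide library displayed on the E. coli surface as eCPX fusions, selected cells deep-sequenced, score is each peptide's frequency after selection divided by its frequency in the input.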
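Throughout, for phosphorylation enrichment, bacterial display: 11-residue human phosphosite peptides and single-mutation variants displayed on the E. coli surface, counted by deep sequencing, each peptide's frequency after selection divided by its frequency in the unselected input library; frequency after pTyr selection over input frequency; kinase dosed for 20-30% of maximal phosphorylation in three min.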

| Sequence | phosphorylation enrichment [1] | phosphorylation enrichment [2] | phosphorylation enrichment [3] | phosphorylation enrichment [4] | phosphorylation enrichment [5] | phosphorylation enrichment [6] | phosphorylation enrichment [7] | phosphorylation enrichment [8] | phosphorylation enrichment [9] | phosphorylation enrichment [10] | phosphorylation enrichment [11] | phosphorylation enrichment [12] | phosphorylation enrichment [13] | SH2 binding enrichment [14] | SH2 binding enrichment [15] | SH2 binding enrichment [16] |
| --- | --- | --- | --- | --- | --- | --- | --- | --- | --- | --- | --- | --- | --- | --- | --- | --- |
| EFEGLYQEGGG [TMEM159_Y159] | 0.974 | 0.576 | 0.579 | 0.5 | 0.612 | 0.585 | 0.939 | 0.675 | 0.842 | 0.781 | 0.456 | 0.551 | 0.658 | 1.51 | 0.789 | 0.607 |
| EFITRYIDSLK [PSMA7_Y110_A112D_YF] | 0.785 | 0.425 | 0.493 | 0.558 | 0.639 | 0.426 | 0.878 | 0.526 | 0.501 | 0.733 | 0.479 | 0.483 | 0.456 | 0.818 | 0.713 | 0.552 |
| EFKKKYSDADI [CKAP5_Y1860_YF] | 0.576 | 0.303 | 0.565 | 0.413 | 0.476 | 0.331 | 0.683 | 0.459 | 0.408 | 0.606 | 0.472 | 0.464 | 0.334 | 0.883 | 0.616 | 0.487 |
| EGDGVYTLNNK [HP_Y125_E130K] | 0.86 | 0.601 | 0.378 | 0.48 | 0.586 | 0.455 | 0.857 | 7.02 | 3.23 | 0.749 | 0.354 | 0.62 | 4.5 | 1.08 | 0.426 | 0.377 |
| EHLNRYISDTF [TTLL10_Y446] | 0.737 | 0.44 | 0.473 | 0.428 | 0.567 | 0.434 | 0.641 | 0.434 | 0.51 | 0.535 | 0.393 | 0.655 | 0.42 | 0.9 | 0.652 | 0.462 |
| EHVMPYAANKN [GRIN2A_Y1431] | 0.53 | 0.392 | 0.302 | 0.361 | 0.344 | 0.253 | 0.463 | 0.313 | 0.358 | 0.56 | 0.322 | 0.374 | 0.375 | 0.792 | 0.747 | 0.484 |
| EKHGQYLIGHG [EPHB4_Y581_D576E] | 0.618 | 0.413 | 0.408 | 0.503 | 0.5 | 0.381 | 0.719 | 0.42 | 0.475 | 0.555 | 0.46 | 0.543 | 0.396 | 0.792 | 0.664 | 0.381 |
| EKLQQYIAPGM [EPHB3_Y600] | 0.589 | 0.401 | 0.35 | 0.389 | 0.506 | 0.435 | 0.759 | 0.334 | 0.363 | 0.927 | 0.328 | 0.582 | 0.412 | 0.696 | 0.734 | 0.47 |
| EKSREYHRLFE [PIK3R1_Y463_D464H_YF] | 0.656 | 0.407 | 0.483 | 0.526 | 0.538 | 0.409 | 0.737 | 0.358 | 0.429 | 0.51 | 0.427 | 0.486 | 0.442 | 0.912 | 0.753 | 4.61 |
| ELANYYKLHHI [AK7_Y391] | 0.647 | 13.7 | 12.3 | 6.91 | 4.77 | 0.629 | 0.591 | 0.566 | 0.743 | 6.75 | 3.36 | 0.565 | 0.762 | 0.705 | 0.941 | 0.474 |
| ELELLYPDRNS [NYX_Y284_L285P] | 1.17 | 0.556 | 0.544 | 0.776 | 0.759 | 0.463 | 1.27 | 0.492 | 0.534 | 1.03 | 0.433 | 0.799 | 0.489 | 0.831 | 1.01 | 0.513 |
| ELPEKYSQNIY [PKP2_Y626] | 0.905 | 0.459 | 0.526 | 0.52 | 0.763 | 0.475 | 0.921 | 0.762 | 0.905 | 0.891 | 0.384 | 0.658 | 0.575 | 0.891 | 0.555 | 0.419 |
| ELQGTYTSLQQ [KIF3C_Y574_R571Q] | 0.984 | 0.638 | 0.862 | 0.63 | 0.595 | 0.592 | 0.995 | 2.63 | 1.74 | 0.867 | 0.641 | 0.768 | 3.34 | 0.827 | 1.63 | 1.9 |
| EMFNPCFGLFE [NEDD4L_Y679_Y679C_YF] | 1.27 | 0.71 | 0.687 | 0.667 | 0.798 | 0.811 | 1.45 | 0.543 | 0.562 | 1.41 | 0.554 | 1.29 | 0.725 | 1.08 | 0.792 | 0.716 |
| EPFELYCEMGS [CBL_Y371_Q367P_YF] | 1.68 | 2.64 | 2.31 | 0.897 | 1.22 | 0.749 | 1.55 | 1.26 | 1.51 | 1.38 | 1.16 | 0.848 | 1.21 | 0.764 | 0.558 | 0.397 |
| EPGNLYIAKVE [CNTN4_Y180_T176P] | 0.833 | 0.454 | 0.482 | 0.435 | 0.605 | 0.408 | 1.09 | 0.386 | 0.502 | 0.898 | 0.347 | 0.665 | 0.439 | 0.788 | 0.553 | 0.405 |
| EPTPGYEVGQR [TSC2_Y1788] | 0.863 | 0.472 | 0.585 | 0.514 | 0.591 | 0.545 | 0.907 | 0.51 | 0.566 | 0.672 | 0.491 | 0.602 | 0.507 | 0.812 | 0.677 | 0.6 |

| Sequence | phosphorylation enrichment [1] | phosphorylation enrichment [2] | phosphorylation enrichment [3] | phosphorylation enrichment [4] | phosphorylation enrichment [5] | phosphorylation enrichment [6] | phosphorylation enrichment [7] | phosphorylation enrichment [8] | phosphorylation enrichment [9] | phosphorylation enrichment [10] | phosphorylation enrichment [11] | phosphorylation enrichment [12] | phosphorylation enrichment [13] | SH2 binding enrichment [14] | SH2 binding enrichment [15] | SH2 binding enrichment [16] |
| --- | --- | --- | --- | --- | --- | --- | --- | --- | --- | --- | --- | --- | --- | --- | --- | --- |
| EQRRAYLEGTC [HLA-C_Y183_L180R] | 0.832 | 0.578 | 0.528 | 0.472 | 0.675 | 0.498 | 1.01 | 0.482 | 0.524 | 0.917 | 0.47 | 0.822 | 0.45 | 0.867 | 0.756 | 0.456 |
| EREYKYGAHNH [OAT_Y50_Y55H] | 0.525 | 0.391 | 0.509 | 0.485 | 0.463 | 0.364 | 0.603 | 0.406 | 0.44 | 0.591 | 0.496 | 0.483 | 0.415 | 0.981 | 0.743 | 0.708 |
| ERFAFYRDSPR [FOXE3_Y108] | 0.889 | 0.456 | 0.51 | 0.474 | 0.566 | 0.404 | 0.785 | 0.49 | 0.523 | 0.835 | 0.489 | 0.625 | 0.587 | 0.774 | 0.751 | 0.522 |
| ERLWDCGMSSS [F8_Y1728_Y1728C] | 0.803 | 0.535 | 0.52 | 0.553 | 0.537 | 0.371 | 0.771 | 0.517 | 0.451 | 0.74 | 0.387 | 0.49 | 0.388 | 1.15 | 0.9 | 0.634 |
| ETDSEYVKLAK [C7orf57_Y70] | 0.934 | 0.441 | 0.492 | 0.377 | 0.478 | 0.335 | 0.817 | 0.433 | 0.425 | 0.69 | 0.398 | 0.588 | 0.391 | 0.816 | 0.676 | 0.479 |
| ETDTRYFDEEF [AKT1_Y437] | 1.32 | 0.633 | 0.714 | 0.567 | 0.81 | 0.563 | 1.29 | 0.544 | 0.665 | 1.37 | 0.527 | 0.875 | 0.679 | 0.902 | 0.916 | 0.775 |
| ETKAFYPEEIS [HSPA1A_Y115] | 1.08 | 0.52 | 0.747 | 0.521 | 0.687 | 0.537 | 0.919 | 0.414 | 0.506 | 1.16 | 0.408 | 0.584 | 0.511 | 0.796 | 0.522 | 0.45 |
| ETWHNYHKFDS [MATR3_Y243_S240W] | 0.7 | 0.799 | 0.605 | 0.942 | 0.732 | 0.395 | 0.755 | 0.468 | 0.448 | 0.71 | 0.458 | 0.48 | 0.439 | 0.865 | 0.791 | 2.09 |
| EVASVYQSYQP [MAVS_Y92] | 0.864 | 0.54 | 0.622 | 0.518 | 0.568 | 2.7 | 0.802 | 9.7 | 7.42 | 0.661 | 0.569 | 1.14 | 7.09 | 0.753 | 0.8 | 0.609 |
| EVTRLYGSVCD [TC2N_Y154_K151T] | 1.18 | 0.708 | 0.586 | 0.557 | 0.783 | 0.982 | 1.29 | 3.63 | 2.02 | 1.27 | 0.727 | 0.895 | 2.77 | 1.11 | 0.379 | 0.503 |
| EWKQKYEESQS [MYH6_Y1462] | 1.02 | 0.525 | 0.616 | 0.499 | 0.65 | 0.44 | 1.08 | 0.49 | 0.528 | 1.04 | 0.357 | 0.706 | 0.395 | 0.897 | 0.672 | 0.545 |
| FADIAYIYRHG [PAH_Y166_N167I] | 0.842 | 0.506 | 0.497 | 0.616 | 0.583 | 0.486 | 0.978 | 0.432 | 0.445 | 1.02 | 0.416 | 0.685 | 0.638 | 0.936 | 1.06 | 0.695 |
| FADIAYNYHHG [PAH_Y166_R169H] | 0.643 | 0.387 | 0.385 | 0.433 | 0.525 | 0.443 | 0.803 | 0.469 | 0.494 | 0.567 | 0.462 | 0.415 | 0.638 | 0.751 | 0.654 | 0.477 |
| FAKTQYPDIYA [CRX_Y63_V66I] | 0.518 | 0.355 | 0.427 | 0.449 | 0.668 | 0.359 | 0.693 | 0.519 | 0.709 | 0.563 | 0.396 | 0.526 | 0.572 | 0.881 | 1 | 0.533 |
| FAREGYSALPQ [SARS2_Y52_YF] | 0.603 | 0.426 | 0.466 | 0.471 | 0.446 | 0.441 | 0.666 | 0.421 | 0.524 | 0.652 | 0.502 | 0.564 | 0.43 | 0.914 | 0.85 | 0.583 |
| FASVEYQEALS [GALNS_Y461_A459V] | 1.01 | 0.621 | 0.588 | 0.484 | 0.631 | 0.47 | 0.997 | 0.615 | 0.471 | 0.876 | 0.416 | 0.738 | 0.442 | 0.917 | 0.723 | 0.576 |
